Residue numbers refer to the chain shown, from its start. In names and notes the source's numbering stands.
Molecular target: the molecule itself
Assay: cross-linking; purified recombinant RRM2 proteins cross-linked with 2 mM disuccinimidylsuberate (DSS), SDS-PAGE

B1: Recombinant His6-tagged WT RRM2 (natural protein, human, UniProt P31350 1-389, looked up)
chain: MLSLRVPLAPITDPQQLQLSPLKGLSLVDKENTPPALSGTRVLASKTARRIFQEPTEPKTKAAAPGVEDEPLLRENPRRFVIFPIEYHDIWQMYKKAEASFWTAEEVDLSKDIQHWESLKPEERYFISHVLAFFAASDGIVNENLVERFSQEVQITEARCFYGFQIAMENIHSEMYSLLIDTYIKDPKEREFLFNAIETMPCVKKKADWALRWIGDKEATYGERVVAFAAVEGIFFSGSFASIFWLKKRGLMPGLTFSNELISRDEGLHCDFACLMFKHLVHKPSEERVREIIINAVRIEQEFLTEALPVKLIGMNCTLMKQYIEFVADRLMLELGFSKVFRVENPFDFMENISLEGKTNFFEKRVGEYQRMGVMSSPTENSFTLDADF
notes: RRM2, human; Purification may be described in the Supplementary Methods; also called recombinant RRM2 WT; source: E. coli, purified
In the case of B1, the “stoichiometry N” value is reported as 2.

B2: Recombinant K95R RRM2 (natural protein, human, UniProt P31350 1-389, looked up)
chain: B1 chain with K95R
notes: RRM2, human, with K95R; Probably His6-tagged and made in E. coli like the WT and K95Q proteins; source: recombinant, purified
In the case of B2, the “stoichiometry N” value is reported as 2.

— paper PMC6642173, “Acetylation regulates ribonucleotide reductase activity and cancer cell growth” (Nature Communications, 2019)
